B1: RHOBTB1 (parent)
chain: TFGDHHKDRRFAYGRSDVVVLCFS
B2: ANKRD17 (parent)
chain: EVLRRLTSSVSCALDEAAAALTRM

Variants of: B1
Test: protein stability index of a GFP-peptide fusion (GPS, HEK-293T) (PSI 1-6); higher = more stable
Settings: c terminus: a fixed tail appended
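Further: lentivirally expressed fusions sorted by FACS into six bins by GFP to DsRed ratio, PSI derived from sequencing read proportions per bin multiplied by bin number.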

Compared with R15V, R15Y is lower in protein stability index: 4.25 for the first, 3.25 for the second.

Compared with S16A, S16D is lower in protein stability index: 4.21 for the first, 2.52 for the second.

Going from S16E to S16H, the protein stability index rises from 2.07 to 2.91.

Going from S16I to S16K, the protein stability index rises from 1.57 to 2.43.

First: S16L
Second: S16M
The protein stability index of the first is lower: 2.15 for the first, 2.96 for the second.

First: S16N
Second: S16P
The protein stability index of the first is lower: 2.38 for the first, 3.17 for the second.

Compared with S16Q, S16W is lower in protein stability index: 2.83 for the first, 2.29 for the second.

Compared with S16Y, D17C is higher in protein stability index: 1.23 for the first, 3.12 for the second.

First: D17F
Second: D17I
The protein stability index of the first is lower: 1.51 for the first, 3.11 for the second.

Going from D17K to D17M, the protein stability index rises from 1.63 to 3.13.

Going from D17N to D17P, the protein stability index rises from 2.23 to 3.44.

Compared with D17Q, D17R is lower in protein stability index: 2.43 for the first, 1.79 for the second.

Going from D17T to D17W, the protein stability index rises from 2.67 to 2.78.

First: V18A
Second: V18C
The protein stability index of the first is lower: 1.74 for the first, 2.01 for the second.

Going from V18D to V18E, the protein stability index rises from 2.03 to 2.19.

Going from V18G to V18H, the protein stability index rises from 1.68 to 1.88.

Compared with V18I, V18K is higher in protein stability index: 1.42 for the first, 3.01 for the second.

Compared with V18L, V18M is lower in protein stability index: 3.53 for the first, 2.06 for the second.

First: V18N
Second: V18P
The protein stability index of the first is lower: 1.57 for the first, 1.58 for the second.

First: V18Q
Second: V18R
The protein stability index of the first is lower: 1.72 for the first, 2.92 for the second.

First: V18S
Second: V18T
The protein stability index of the first is lower: 1.46 for the first, 1.54 for the second.

First: V18W
Second: V18Y
The protein stability index of the first is higher: 2.21 for the first, 2.2 for the second.

First: V19A
Second: V19C
The protein stability index of the first is higher: 2.23 for the first, 1.26 for the second.

First: V19D
Second: V19E
The protein stability index of the first is higher: 2.93 for the first, 1.88 for the second.

Going from V19G to V19H, the protein stability index rises from 1.61 to 2.

First: V19I
Second: V19K
The protein stability index of the first is higher: 2.14 for the first, 1.92 for the second.

First: V19L
Second: V19M
The protein stability index of the first is higher: 2.82 for the first, 2.17 for the second.

Compared with V19N, V19P is lower in protein stability index: 2.28 for the first, 1.69 for the second.

Going from V19Q to V19R, the protein stability index rises from 1.52 to 1.89.

Compared with V19S, V19T is higher in protein stability index: 1.87 for the first, 2.68 for the second.

First: V19W
Second: V19Y
The protein stability index of the first is lower: 1.37 for the first, 2.45 for the second.

First: V20A
Second: V20C
The protein stability index of the first is higher: 3.28 for the first, 1.51 for the second.

Compared with V20D, V20E is higher in protein stability index: 2.62 for the first, 2.7 for the second.

Compared with V20F, V20G is lower in protein stability index: 2.54 for the first, 2.05 for the second.

First: V20H
Second: V20K
The protein stability index of the first is lower: 1.62 for the first, 1.73 for the second.

Compared with V20L, V20M is lower in protein stability index: 2.42 for the first, 1.44 for the second.

Compared with V20N, V20P is higher in protein stability index: 2.56 for the first, 2.61 for the second.

Going from V20Q to V20R, the protein stability index rises from 1.7 to 1.97.

Compared with V20S, V20T is lower in protein stability index: 1.95 for the first, 1.68 for the second.

First: V20Y
Second: L21A
The protein stability index of the first is higher: 1.75 for the first, 1.62 for the second.

Compared with L21C, L21D is higher in protein stability index: 1.85 for the first, 2.68 for the second.

Going from L21E to L21F, the protein stability index falls from 2.79 to 2.07.

First: L21G
Second: L21H
The protein stability index of the first is higher: 2.23 for the first, 1.9 for the second.

Going from L21I to L21K, the protein stability index rises from 1.49 to 2.34.

Compared with L21M, L21N is lower in protein stability index: 2.78 for the first, 2.44 for the second.

Going from L21P to L21Q, the protein stability index falls from 2.56 to 2.4.

Going from L21R to L21S, the protein stability index rises from 1.96 to 2.15.

First: L21T
Second: L21V
The protein stability index of the first is lower: 2.14 for the first, 2.86 for the second.

Compared with L21W, C22A is lower in protein stability index: 2.3 for the first, 1.72 for the second.

Going from C22D to C22E, the protein stability index falls from 2.32 to 2.2.

Compared with C22F, C22G is lower in protein stability index: 3.21 for the first, 2.21 for the second.

Compared with C22K, C22L is higher in protein stability index: 2.17 for the first, 2.42 for the second.

Compared with C22M, C22N is lower in protein stability index: 2.88 for the first, 2.23 for the second.

Going from C22P to C22Q, the protein stability index falls from 2.21 to 2.2.

Going from C22S to C22T, the protein stability index falls from 1.94 to 1.3.

Going from C22V to C22W, the protein stability index falls from 3.33 to 2.73.

Going from C22Y to F23C, the protein stability index rises from 1.07 to 2.41.

First: F23D
Second: F23E
The protein stability index of the first is lower: 3.1 for the first, 3.12 for the second.

Going from F23G to F23H, the protein stability index rises from 2.47 to 2.6.

Going from F23I to F23K, the protein stability index rises from 1.41 to 2.25.

Compared with F23L, F23M is higher in protein stability index: 1.42 for the first, 2.59 for the second.

Compared with F23N, F23P is lower in protein stability index: 3.08 for the first, 2.16 for the second.

Compared with F23R, F23S is lower in protein stability index: 2.38 for the first, 1.66 for the second.

Going from F23T to F23W, the protein stability index rises from 1.68 to 1.81.

Compared with F23Y, S24C is higher in protein stability index: 2.22 for the first, 3.85 for the second.

Going from S24D to S24E, the protein stability index rises from 1.66 to 2.05.

First: S24F
Second: S24G
The protein stability index of the first is higher: 2.84 for the first, 2.54 for the second.

First: S24H
Second: S24N
The protein stability index of the first is higher: 2.98 for the first, 1.65 for the second.

Going from S24P to S24R, the protein stability index rises from 1.48 to 2.95.

First: S24T
Second: S24V
The protein stability index of the first is lower: 2.16 for the first, 2.3 for the second.

Variant S24Y has a protein stability index of 4.57.

Variants of: B2
Test: as above
Settings: c terminus: a fixed tail appended

Going from E1K to D15G, the protein stability index falls from 2.28 to 1.26.

First: C12L
Second: D15M
The protein stability index of the first is lower: 2.75 for the first, 3.36 for the second.

First: L6G
Second: A17E
The protein stability index of the first is lower: 1.42 for the first, 2.24 for the second.

Compared with L14T, A20K is lower in protein stability index: 2.77 for the first, 2.69 for the second.

Compared with A20Y, S9Q is lower in protein stability index: 3.13 for the first, 2.21 for the second.

First: R4I
Second: S9F
The protein stability index of the first is lower: 1.04 for the first, 2.38 for the second.

Going from T7L to R23S, the protein stability index falls from 2.95 to 1.93.

First: L6E
Second: A17S
The protein stability index of the first is higher: 3.9 for the first, 2.16 for the second.

Compared with C12Y, A13I is higher in protein stability index: 1.65 for the first, 2.26 for the second.

First: E1Y
Second: A17C
The protein stability index of the first is lower: 2.22 for the first, 2.59 for the second.

Compared with A13V, C12W is higher in protein stability index: 1.16 for the first, 2.27 for the second.

Compared with S8R, A17V is higher in protein stability index: 2.21 for the first, 2.32 for the second.

First: S9A
Second: A18Y
The protein stability index of the first is higher: 2.11 for the first, 1.69 for the second.

Source: the supplement of paper PMC10567573
